{
  "source": "paper PMC3393791",
  "binders": {"B1": {"name": "Full-length human TIP47/perilipin-3, O60664 1-434 (natural protein)", "chain": "MSADGAEADGSTQVTVEEPVQQPSVVDRVASMPLISSTCDMVSAAYASTKESYPHIKTVCDAAEKGVRTLTAAAVSGAQPILSKLEPQIASASEYAHRGLDKLEENLPILQQPTEKVLADTKELVSSKVSGAQEMVSSAKDTVATQLSEAVDATRGAVQSGVDKTKSVVTGGVQSVMGSRLGQMVLSGVDTVLGKSEEWADNHLPLTDAELARIATSLDGFDVASVQQQRQEQSYFVRLGSLSERLRQHAYEHSLGKLRATKQRAQEALLQLSQVLSLMETVKQGVDQKLVEGQEKLHQMWLSWNQKQLQGPEKEPPKPEQVESRALTMFRDIAQQLQATCTSLGSSIQGLPTNVKDQVQQARRQVEDLQATFSSIHSFQDLSSSILAQSRERVASAREALDHMVEYVAQNTPVTWLVGPFAPGITEKAPEEKK"}},
  "molecular_target": "T1, Full-length human TIP47/perilipin-3 (human), O60664",
  "T1 chain": "B1 chain",
  "test": "SEC-MALS",
  "settings": "remark: other sources report otherwise",
  "data": [
    {"binder": "B1", "values": [
      {"measurement": "stoichiometry N", "result": 2}
    ]}
  ]
}
